Values quoted from earlier work as cited in paper PMC2799686.

Target: DnaK (Escherichia coli) (UniProt P0A6Y8)
Assay: competition

pyrrhocoricin, sequence (P37362 whole entry): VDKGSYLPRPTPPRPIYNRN
DnaK (Escherichia coli), sequence (P0A6Y8 2-638): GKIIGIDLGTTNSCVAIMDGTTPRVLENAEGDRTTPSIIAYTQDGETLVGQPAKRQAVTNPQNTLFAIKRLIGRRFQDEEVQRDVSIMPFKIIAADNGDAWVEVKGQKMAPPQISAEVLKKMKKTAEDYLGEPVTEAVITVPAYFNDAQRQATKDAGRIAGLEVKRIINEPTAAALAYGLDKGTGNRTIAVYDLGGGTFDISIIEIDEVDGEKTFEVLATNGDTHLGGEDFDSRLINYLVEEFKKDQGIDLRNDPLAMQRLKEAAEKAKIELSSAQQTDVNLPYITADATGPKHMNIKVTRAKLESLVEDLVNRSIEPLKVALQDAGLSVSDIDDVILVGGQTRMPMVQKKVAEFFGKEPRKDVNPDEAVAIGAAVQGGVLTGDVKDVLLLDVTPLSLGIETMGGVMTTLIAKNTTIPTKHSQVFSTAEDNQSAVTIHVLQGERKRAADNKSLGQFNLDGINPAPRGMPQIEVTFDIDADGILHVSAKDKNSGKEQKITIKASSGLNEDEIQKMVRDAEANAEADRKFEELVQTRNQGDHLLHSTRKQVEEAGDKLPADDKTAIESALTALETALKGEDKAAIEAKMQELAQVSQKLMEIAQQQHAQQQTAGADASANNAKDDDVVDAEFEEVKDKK

Substance: pyrrhocoricin (from UniProt P37362)
- Kd: 50 µM
